Results published in the nanobody polyreactivity screen of Harvey et al. (2022).

Test: yeast display, Sf9 membrane polyspecificity reagent, FACS + sequencing; frameworks hold sequencing errors
Method in brief: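 Sorting gates, low and high (top ~1%), were placed on anti-HA fluorescence to track expression and on streptavidin fluorescence to track reagent binding. A clone's polyreactivity label is taken from the gate it came out of. The reagent was 10% biotinylated, detergent-solubilized Sf9 membrane, applied for 1 hour at 4 °C to galactose-induced yeast display cells.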

Sequence	polyreactivity (PSR sort gate)
QVQLVESGGGLVQAGGSLRLSCAASGRIYIGNAMGWYRQAPGKERELVAAISKRGGSTYYADSVKGRFTISRDNAKNTVYLQMKSLKAEDTAVYYCIKESLYREFDYLGQGTQVTVSS	low polyreactivity
QVQLVESGGGLVQAGGKLRLSCAASGSIFSDYTMGWYRQAPGKERELVAVITLSSGSTYYADSVKGRFTISRDNAKNTVYLQMNSLKPEDTAVYYCAADGWYYFGSGVFEYDYWGQGTQVTVSS	low polyreactivity
QVQLVESGGGLDQAGGSLRLSCAASGRIFRPNAMGWYRQAPGKERELVAAITSGGSTNYADSVKGRFTISRDNAKNTVYLQMNSLKPEDNAVYYCAKGYKYGKNIYYYWGQGTQVTVSS	high polyreactivity
QVQLVESGGGLDQAGGSLRLSCAASGSIFYTNAMGWYRQAPRKERELVAAITSADSTYYADSVKGRFTISRDNANNTVYLQMNSLKPEDTAFYYCANDVYYYYRWYEYWGQGTQVTVSS	high polyreactivity
QVQLVESGAGLVQAGGSLRLSCAASGFTFNYYAMGWYRQAPGKERELVATITTSGGITYYADSVKGRFTISRDNAKNTVYLQMNSLKPEDTAVYYCAAGSYSRYLYSLYFDFDYWGQGTQVTVSS	low polyreactivity
QVQLVESGGGLVQAGGSLRLSCAASGRIFAYYAMGWYRQAPGKERELVAAISFIGGSTYYADSVKGRFTISRDNAKNTVYLQMNSLKPEDTAVDYCTAGYVRRYSPSSSWRYDYWGQGTQVTVSS	high polyreactivity
QVQLVESGGGLVQAGGSLRLSCAASGITFDTYDMGWYRQAPGKERELVAAISSSGGSTYYADSVKGRFTISRDNAKNTVYLQMNSLKPEDTAVYYCAAVLLDDDYSYYYWGQGTQVTVSS	low polyreactivity
QVQLVESGGGLVQAGGSLRLSCAASGITYWKYAMGWYRQAPGKERELVAAISKSGGSTYYADSVKGRFTISRDNAKNTVYLQMNSLKPEDTAVYYCAAVPGPASKYGYWGQGTQVTVSS	high polyreactivity
QVQLVESGGGLVQAGGSLRLSCAASGNIFYLYAMGWYRQAPGKERELVARITIGGSTYYADSVKGRFTISRDNAKNTVYLQMNSLKPEDTAVYYCAARGPYYRYYYWGQGTQVTVSS	high polyreactivity
QVQLVESGGGLVQAGGSLRLSCAASGSTFPSYAMGWYRPAPGKERELVAAINSGGGTNYADSVKGRFTISRDNAKNTVYLQMNSLKPEDTAVYYCAKSRYEYTKTEGGYWGQGTQVTVSS	low polyreactivity
QVQLVESGGGLVQAGGSLRLSCAASGSTFAYYARGWYRQAPGKERELVASISWRGGSTYYADSVKGRFTISRDNAKNTVYLQMNSLKPEDTAFYYCAAGRFYKWSRSQEYDYWGQGTQVTVSS	low polyreactivity
QVQLVESGGGLVQAGGSLRLSCAASGRTFYFYAMGWYRQAPGKERELVAAITVRGGSTYYADSVKGRFTISRYNAKNTVYLQMNSLKPEDTAVYYCAADPYPYYGAYDYWGQGTQVTVSS	high polyreactivity
QVQLVESGGGLVQAGGSLRLSCAASGRIFYRYVMGWYREAPGKERELVAAIRNSGGSTYYADSVKGRFTISRDNAKNTVYLQMNSLKPEDTAVYYCAKRYGTSFYVGSAKIGYDYWGQGTQVTVSS	high polyreactivity
QVQLVESGGGLVQAGGSLRLTCAASGRTFNVNVMGWSRQAPGKERELVAAIRYTGGSTYADSVKGRFTISRDNAKNTVYLQMNSLKPEDTAVYYCNADTFFPFDHGMDYWGQGTQVTVSS	low polyreactivity
QVQLVESGGGLVQAGGSLRLICAASGFIFKGYAMGWNRQAPGKERELVAAISSSGTSTYYADSVKGRFTISRDNAKNTVYLQMNSLKPEDTAVYYCAADLASYAYRYDFWGQGTQVTVSS	high polyreactivity
QVQLVESGGGLVQAGGILRLSCAASGFTFNNYAMGWYRQAPGKERELVAAISSGAGTYYAESVKGRFTISRDNAKNTVYLQMNSLKPEDTGVYYCNASLKYQGRTRITYRHDYCGQGTQVTVSS	low polyreactivity
QVQLVESVGGLVQAGGSLRLSCAASGSIFITYAMGWYRQAPGKVRELVAAIRDSGDRTYYADSVKGRFTISRDNAKNTVYLQMNSLKPEDTAVYYCNARWQEPLKYDYWGQGTQVTVSS	low polyreactivity
QVQLVESGGGLVQAAGSLRLSCAASGQFFAYYAMGWYRQATGKEREFVAAISWTGGSTYYADSVKGRFTISRDYAKKTVYLLMNSLKPEDTGVYYCAAVSNHLRYVASRYSYYYWGQGTQVTVSS	high polyreactivity
QVQLVESGGGLVQAGGSLRLSCAASGSTLAGYAMGWYRPAPGKERELVAAIDWTGGSTTYADSVKGRFTISRDNAKNTVYLQMNSLKPEDTAVYYCNVDLGVNGDYWGQGTQVTVSS	low polyreactivity
QVQLVESGGGLVQAGGSLRLSCAASGITLWQYAMGWYRQAPGKERELVAGITDTGDSTYYADSVKGRVTISRDNAKNTVYLQMNSLKPEDTAVYYCAVPRSALLRAPYELYSWGQGTQVTVSS	low polyreactivity
QVQLVESGGGLVQAGGSLRLSCAASGRIFYPYAMGWYRQAPGKERELVAAITSDGGSTYYADSVKGRFTISRDNAKNTVYLQMNSLKPEDTAVYYCAAYEAYKANVGGGYYYWGQGTQVTVSS	low polyreactivity
QVQLVESGGGLVQAGGSLRLSCAASGRTLRYYAMGWYRQAPGKERELVATISRAGRTNYADSVKGRFTISRDNAKNTVYLQMNSLKPEDTAVYYCAAGRVVYSYSDNYDYWGQGTQVTVSS	high polyreactivity

Sequence	polyreactivity (PSR sort gate)
QVQLVESGGGLVQAGGRLSLSCAASGSIFLYYAMGWYRQAPGKEREFVADISRSGGSTYYADSVKGRFTISRDNAKNTVYLQMNSLKPEDTAVYYCAASFYRYFVSLCYDYWGQGTQVSVSS	high polyreactivity
QVQLVESGGGLVQAGGSLRLSCAASGRIFNIYAMGWYRQAPGKERELVAAIRWNGGSTYYADSVKGRFTISRDNAKYTVYLQMYSLKPEDSAVYYCAAARRRRFYDYYNAWYDVDYWGQGTQVSVSS	low polyreactivity
QVQLVESGGGLVQAGGSLRLSCAASGSIFRYYAMGWYRQAPGKERELVASITRRGGSTYYADSVKGRFTISRDNAKNTVYLQMNSLKPEDTAFYYCAAHKTYVREYYWGQGTQVTVSS	high polyreactivity
QVQLVESGGGLVQAGGSLRLSCAASGRTFYFNGMGWYRQAPGKERELVAAIRWRDSNTYYADSVKGRFTISRDNAKNTVYLQMNSLKPEDTAVYYCNVGIYSYGINGRYDYWGQGTQVTVSS	high polyreactivity
QVQLVESGGGLVQAGGSLRLRCAASGRIFRGYAMGWYRQAPGKERELVAAISWSGGSSTYADSVKGRFTISLDNAKNTVYLQMNSLKPEDTAVYDCNRVSRGRGRLTVDYQAEGYDSWGQGTQVTVSS	high polyreactivity
QVQLVESGGGLVQAGGSLRLSCAASGFSFEGYAMGWYRQAPGKERELVAAISSNGGRTYYADSVKGRFTISRDNAKNTVYVLMNSLKPEDTAVYYCNARRAYSGPDYDYYHGRRYDYWGQGTQVSVSS	low polyreactivity
QVQLVESGGGLVQAGGSLRLSCAASGRTLTAYAMGWYRQAPGKERELVAAISVTGDNTYYADSVKGRFTISRDNAKNTVYLQMNSLKPEDTAVYYCDARKQYKYGYWGQGTQVTVSS	low polyreactivity
QVQLVESGGGLVQAGGSLRLSCAASGFTFGQYAMGWYRQAPGKERELVAAITGSGGRTYYADSVKGRFTISRDNAKNTVYLQMNSLKPEDTAVYYCNARVPLRHYSNYYWGQGTQVTVSS	high polyreactivity
QVQHVESGGGLVQAGGSLRLSCAASGFIFWYYTMGWYRQAPGKVRELLATISGGGSTYYADSVKGRFTISRDNAKNTVYLQMNSLKPEDTAVYYCNAVIRTRRVGYGDGVDYWGQGTQVTVSS	high polyreactivity
QVQLVDSGGGLVQAGGSLRLSCAASGSTFQPYAMGWYRQAPGKERELVAAIRYSGGITYYADSVKGRFTISRDNAKNTVYLQMNSLKPEDTAVYYCAAYGFYGGDYWGQGTQVTVSS	high polyreactivity
QVQLVESGGGLVQAGGSLRLSCAASGFTFYLYAMGWYRQAPGKERELVASISSGGRTKYADSVKGRFSISRDNAMNTVYLQMNSLKPEDTAVYYCAARGYFTRQFTPYDYWGQGTQVTVSS	high polyreactivity
QVQLVESGGGLVQAGGSLRLSRPASGFTYIYSVMGWYRQAPGKERELVAAINGRGDRKYYADSVKGRFTISRDNAKNTGYLQMNSLKPEDTAVYYCNARTHTWGYSAKFDYWGQGTQVTVSS	high polyreactivity
QVQLVESGGGLVQAGGSLRLICAASGNIFTQYGMGWYRQAPGKERELVAAISRRGGSTYYADSVKGRFTISRDNAKNTVYLQMNSLKPEDTAVYYCARRTNRPPWGFEYWGQGTQVTVSS	high polyreactivity
QVQLVESGGGLVQAGGSLRLSCDASGFTVVIYTMGWYRQAPGKERELVAAINWSGASTYYADSVKGRFTISRDNAKNTVYLQINSLKPEDTAVYYCNRVYVQQDFPYKIYPYNYWGQGTQVTVSS	high polyreactivity
QVQLVESGGGLVQAGGSLRLSCAASGSTFPVNAMGWYRQAPGKERELVATIRWTGGGTYYADSVKGRFTISRDNAKNTVYLQMNSLKPEDTAVYYCAADPPWEWSDYGYDYWGQGTQVTVSS	low polyreactivity
QVQLVESGGGLVQAGGSLRLSCASSGFTFWYYAMGWYRQAPGKERELVASISRTGGTTYYADSVKGRFTISRDNAKNTVYLQMNSLKPEDTAVYYCNARPKVYYREYDYWGQGTQVSVSS	high polyreactivity
QVQLVESGGGLVQAGGSLRLSCAASGGIFWAYAMGWYRQAPGKERELVAAITTLGTSTYYADSVKGRFTISRDNAKNTVYLQMNSLKPEDTGVYYCAAVDPYSYSFDYWGQGTQVTVSS	high polyreactivity
QVQLVESGGGLVQAGGSLRLSCAASGRTFARYAMGWYRQAPGKERELVASNRRGTSTNYADSVKGRFTISRDNAKNTVYLQMNSLKPEDTAVYYCAARVGTQGDHGDYWGQGTQVTVSS	high polyreactivity
QVQLVESGGGLVQAGGSLRLSCAASGSIFPYNAMGWYRQAPGKERELVATISSGGSTNYADSVKGRFTISRDNAKNTVYLHMNSLKPEDTAVYYCAADVIVFYYAPNYWGDIGYGYWGQGTQVTVSS	low polyreactivity
QVQLVESGGRLVQAGGSLRLSCAASGFTFRRYAMGWYRQAPGKERELVAVITTAGSTNYADSVKGRFTISRDNAKNTVYLQMNTLKPEDTAVYYCATDNGTRKRRYDYWGQGTQVTVSS	low polyreactivity
QVQLVESGGGLVQAGGSLRLSCAASGITFGRYAMGWYRQAPGKERELVAAISWSGGSTYYADSVKGRFTISRDNAKNTVYLQMNSLKPEDTAVYYCATRIRTVAYNYWGQGTQVTVSS	high polyreactivity
